In patent US20040235717A1 (published 2004):

How the values were obtained:
[1] = molecular target: T1, androgen receptor, wild type, full length (UniProt P10275 1-920); assay: co-immunoprecipitation in prostate cancer cells
T1 construct: also called AR; wtAR
T1 sequence (looked up): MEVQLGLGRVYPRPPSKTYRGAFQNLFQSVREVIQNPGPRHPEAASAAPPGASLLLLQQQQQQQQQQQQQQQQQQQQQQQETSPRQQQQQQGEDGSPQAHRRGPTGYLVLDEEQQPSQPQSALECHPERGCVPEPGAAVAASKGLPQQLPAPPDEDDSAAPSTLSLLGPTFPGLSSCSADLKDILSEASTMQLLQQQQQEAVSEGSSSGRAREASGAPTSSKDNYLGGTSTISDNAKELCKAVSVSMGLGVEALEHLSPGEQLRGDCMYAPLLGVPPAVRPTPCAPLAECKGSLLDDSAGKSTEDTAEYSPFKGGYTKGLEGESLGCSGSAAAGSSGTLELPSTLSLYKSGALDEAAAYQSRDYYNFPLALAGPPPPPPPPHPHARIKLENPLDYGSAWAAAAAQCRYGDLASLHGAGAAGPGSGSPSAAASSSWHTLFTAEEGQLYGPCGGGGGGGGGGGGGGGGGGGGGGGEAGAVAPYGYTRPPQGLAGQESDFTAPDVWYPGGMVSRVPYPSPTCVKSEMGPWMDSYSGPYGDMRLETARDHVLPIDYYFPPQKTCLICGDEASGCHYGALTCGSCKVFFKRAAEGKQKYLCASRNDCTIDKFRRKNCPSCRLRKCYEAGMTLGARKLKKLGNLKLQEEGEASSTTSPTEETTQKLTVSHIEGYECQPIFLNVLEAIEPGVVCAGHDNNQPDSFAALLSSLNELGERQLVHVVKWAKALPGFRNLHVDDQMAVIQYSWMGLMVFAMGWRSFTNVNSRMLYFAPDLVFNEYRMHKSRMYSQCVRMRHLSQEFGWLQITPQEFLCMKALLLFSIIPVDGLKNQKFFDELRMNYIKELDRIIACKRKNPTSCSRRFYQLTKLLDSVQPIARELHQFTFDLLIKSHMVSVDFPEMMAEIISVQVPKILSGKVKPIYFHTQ

[2] = molecular target: T1, androgen receptor, wild type, full …; assay: co-immunoprecipitation in PC-3(AR)2 cells overexpressing Flag-Smad3, Flag-Smad4 and AR
[3] = molecular target: T1, androgen receptor, wild type, full …; assay: anti-Smad3 immunoprecipitation from PC-3(AR)2 cells, immunoblot for AR
[4] = molecular target: T1, androgen receptor, wild type, full …; assay: GST pull-down of 35S-AR with PTEN deletion mutants

B1: PTEN (phosphatase and tensin homolog deleted on chromosome ten), wild type, full length (enzyme)
chain: not shown
notes: Stood as in vitro expressed 35S-PTEN, as Dox-induced PTEN in LNCaP PTEN-C1 cells, as endogenous PTEN of CWR22 cells and as transfected PTEN in COS-1 cells; also called [35S]-PTEN; pCDNA3-PTEN
B1: binds [1].

B2: N-terminal Flag-tagged, full-length Smad3 (other, human, UniProt P84022 1-425, looked up)
chain: MSSILPFTPPIVKRLLGWKKGEQNGQEEKWCEKAVKSLVKKLKKTGQLDELEKAITTQNVNTKCITIPRSLDGRLQVSHRKGLPHVIYCRLWRWPDLHSHHELRAMELCEFAFNMKKDEVCVNPYHYQRVETPVLPPVLVPRHTEIPAEFPPLDDYSHSIPENTNFPAGIEPQSNIPETPPPGYLSEDGETSDHQMNHSMDAGSPNLSPNPMSPAHNNLDLQPVTYCEPAFWCSISYYELNQRVGETFHASQPSMTVDGFTDPSNSERFCLGLLSNVNRNAAVELTRRHIGRGVRLYYIGGEVFAECLSDSAIFVQSPNCNQRYGWHPATVCKIPPGCNLKIFNNQEFAALLAQSVNQGFEAVYQLTRMCTIRMSFVKGWGAEYRRQTVTSTPCWIELHLNGPLQWLDKVLTQMGSPSIRCSSVS
notes: Expressed in PC-3 or PC-3(AR)2 cells; also called Flag-Smad3; FLAG-Smad3; not shown: N-terminal Flag tag
B2: binds [2].

B3: N-terminal Flag-tagged, full-length Smad4 (other, human, UniProt Q13485 1-552, looked up)
chain: MDNMSITNTPTSNDACLSIVHSLMCHRQGGESETFAKRAIESLVKKLKEKKDELDSLITAITTNGAHPSKCVTIQRTLDGRLQVAGRKGFPHVIYARLWRWPDLHKNELKHVKYCQYAFDLKCDSVCVNPYHYERVVSPGIDLSGLTLQSNAPSSMMVKDEYVHDFEGQPSLSTEGHSIQTIQHPPSNRASTETYSTPALLAPSESNATSTANFPNIPVASTSQPASILGGSHSEGLLQIASGPQPGQQQNGFTGQPATYHHNSTTTWTGSRTAPYTPNLPHHQNGHLQHHPPMPPHPGHYWPVHNELAFQPPISNHPAPEYWCSIAYFEMDVQVGETFKVPSSCPIVTVDGYVDPSGGDRFCLGQLSNVHRTEAIERARLHIGKGVQLECKGEGDVWVRCLSDHAVFVQSYYLDREAGRAPGDAVHKIYPSAYIKVFDLRQCHRQMQQQAATAQAAAAAQAAAVAGNIPGPGSVGGIAPAISLSAAAGIGVDDLRRLCILRMSFVKGWGPDYPRQSIKETPCWIEIHLHRALQLLDEVLHTMPIADPQPLD
notes: Expressed in PC3-AR2 cells; also called Flag-Smad4; FLAG-Smad4; not shown: N-terminal Flag tag
B3: binds [2].

B4: Smad3 (full length, untagged) (other, human, UniProt P84022 1-425, looked up)
chain: MSSILPFTPPIVKRLLGWKKGEQNGQEEKWCEKAVKSLVKKLKKTGQLDELEKAITTQNVNTKCITIPRSLDGRLQVSHRKGLPHVIYCRLWRWPDLHSHHELRAMELCEFAFNMKKDEVCVNPYHYQRVETPVLPPVLVPRHTEIPAEFPPLDDYSHSIPENTNFPAGIEPQSNIPETPPPGYLSEDGETSDHQMNHSMDAGSPNLSPNPMSPAHNNLDLQPVTYCEPAFWCSISYYELNQRVGETFHASQPSMTVDGFTDPSNSERFCLGLLSNVNRNAAVELTRRHIGRGVRLYYIGGEVFAECLSDSAIFVQSPNCNQRYGWHPATVCKIPPGCNLKIFNNQEFAALLAQSVNQGFEAVYQLTRMCTIRMSFVKGWGAEYRRQTVTSTPCWIELHLNGPLQWLDKVLTQMGSPSIRCSSVS
notes: also called endogenous Smad3; [35S]-labeled Smad3
B4: binds [3].

B5: GST-PTEN-#1 (aa 1-107) (other, UniProt P60484 1-107, looked up)
chain: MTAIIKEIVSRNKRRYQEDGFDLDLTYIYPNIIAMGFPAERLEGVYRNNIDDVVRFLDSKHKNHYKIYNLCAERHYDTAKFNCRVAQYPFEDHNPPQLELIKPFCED
notes: not shown: glutathione S-transferase (GST), pGEM-KG vector
B5: no binding [4].

B6: GST-PTEN-#3 (aa 253-403) (other, UniProt P60484 253-403, looked up)
chain: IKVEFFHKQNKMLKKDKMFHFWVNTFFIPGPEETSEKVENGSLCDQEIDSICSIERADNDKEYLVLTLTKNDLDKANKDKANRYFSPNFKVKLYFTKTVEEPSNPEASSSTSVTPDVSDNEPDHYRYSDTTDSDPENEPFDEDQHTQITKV
notes: range 253-403; not shown: glutathione S-transferase (GST), pGEX-3x vector
B6: no binding [4].
